How the values were obtained:
Assay in all cases: cell-based or functional assay
[1] = target: HIV-1 Env of NAC_93IN905 (HIV-1)
[2] = target: HIV-1 Env of NAC_KNH1144 (HIV-1)
[3] = target: HIV-1 Env of NAC_MN (HIV-1) (UniProt P05877)
[4] = target: HIV-1 Env of NAC_RHPA4.7 (HIV-1)
[5] = target: HIV-1 Env of NAC_YU2 (HIV-1) (UniProt P35961)
[6] = target: HIV-1 Env of NIH-006_AC10.0.29 (HIV-1)
[7] = target: HIV-1 Env of NIH-010_1054.07.TC4.1499 (HIV-1)
[8] = target: HIV-1 Env of NIH-014_6244.13.B5.4567 (HIV-1)
[9] = target: HIV-1 Env of NIH-018_Du172.17 (HIV-1)
[10] = target: HIV-1 Env of NIH-021_ZM214M.PL15 (HIV-1)
[11] = target: HIV-1 Env of NIH-027_CAP45.G3 (HIV-1)
[12] = target: HIV-1 Env of NIH-031_HIV-16055.2.3 (HIV-1)
[13] = target: HIV-1 Env of NIH-036_Ce2010 F5 (HIV-1)
[14] = target: HIV-1 Env of NIH-040_Ce703010054 2A2 (HIV-1)
[15] = target: HIV-1 Env of NIH-042_ZM246F.D5 (HIV-1)
[16] = target: HIV-1 Env of NIH-050_CNE21 (HIV-1)
[17] = target: HIV-1 Env of NIH-057_MS208.A1 (HIV-1)
[18] = target: HIV-1 Env of NIH-078_BJOX015000.11.5 (HIV-1)
[19] = target: HIV-1 Env of NIH-079_BJOX010000.06.2 (HIV-1)
[20] = target: HIV-1 Env of NIH-094_3817.v2.c59 (HIV-1)
[21] = target: HIV-1 Env of NIH-096_6952.v1.c20 (HIV-1)
[22] = target: HIV-1 Env of NIH-097_6811.v7.c18 (HIV-1)
[23] = target: HIV-1 Env of NIH-101_6540.v4.c1 (HIV-1)
[24] = target: HIV-1 Env of isolate NIH-083_P0402 c2 11 (HIV-1)
[25] = target: HIV-1 Env of isolate NIH-089_3016.v5.c45 (HIV-1)
[26] = target: HIV-1 Env of pseudovirus NAC_92RW020 (HIV-1)
[27] = target: HIV-1 Env of pseudovirus NAC_BG505 (HIV-1)
[28] = target: HIV-1 Env of pseudovirus NAC_SF162 (HIV-1)
[29] = target: HIV-1 Env of pseudovirus NIH-005_TRO.11 (HIV-1)
[30] = target: HIV-1 Env of pseudovirus NIH-013_6240.08.TA5.4622 (HIV-1)
[31] = target: HIV-1 Env of pseudovirus NIH-018_Du172.17 (HIV-1)
[32] = target: HIV-1 Env of pseudovirus NIH-025_ZM109F.PB4 (HIV-1)
[33] = target: HIV-1 Env of pseudovirus NIH-035_Ce1176 A3 (HIV-1)
[34] = target: HIV-1 Env of pseudovirus NIH-053_CNE52 (HIV-1)
[35] = target: HIV-1 Env of pseudovirus NIH-055_CNE58 (HIV-1)
[36] = target: HIV-1 Env of pseudovirus NIH-063_0330.v4.c3 (HIV-1)
[37] = target: HIV-1 Env of pseudovirus NIH-064_0260.v5.c1 (HIV-1)
[38] = target: HIV-1 Env of pseudovirus NIH-065_191955 A11 (HIV-1)
[39] = target: HIV-1 Env of pseudovirus NIH-068_620345.c01 (HIV-1)
[40] = target: HIV-1 Env of pseudovirus NIH-071_R1166.c01 (HIV-1)
[41] = target: HIV-1 Env of pseudovirus NIH-072_R3265.c06 (HIV-1)
[42] = target: HIV-1 Env of pseudovirus NIH-077_BJOX009000.02.4 (HIV-1)
[43] = target: HIV-1 Env of pseudovirus NIH-099_3301.v1.c24 (HIV-1)
[44] = target: HIV-1 Env of pseudovirus NIH-108_T235.47 (HIV-1)
[45] = target: HIV-1 Env of pseudovirus NIH-116_T263.8 (HIV-1)
[46] = target: HIV-1 Env of pseudovirus NIH-117_T278.5 (HIV-1)

## 4E10 (antibody)
[1]
  IC80 neutralization: 0.472 µg/mL
[2]
  IC80 neutralization: 47.9 µg/mL
[3]
  IC80 neutralization: 0.135 µg/mL
[4]
  IC80 neutralization: 19.3 µg/mL
[5]
  IC80 neutralization: > 50 µg/mL
[6]
  IC80 neutralization: 2.73 µg/mL
[7]
  IC80 neutralization: 5.43 µg/mL
[8]
  IC80 neutralization: 0.373 µg/mL
[9]
  IC80 neutralization: 0.474 µg/mL
[10]
  IC80 neutralization: 21.2 µg/mL
[11]
  IC80 neutralization: 4.19 µg/mL
[12]
  IC80 neutralization: 6.57 µg/mL
[13]
  IC80 neutralization: > 50 µg/mL
[14]
  IC80 neutralization: 12.5 µg/mL
[15]
  IC80 neutralization: 6.7 µg/mL
[16]
  IC80 neutralization: 2.15 µg/mL
[17]
  IC80 neutralization: 2.86 µg/mL
[18]
  IC80 neutralization: 0.647 µg/mL
[19]
  IC80 neutralization: 1.73 µg/mL
[20]
  IC80 neutralization: 2.12 µg/mL
[21]
  IC80 neutralization: 3.5 µg/mL
[22]
  IC80 neutralization: 17 µg/mL
[23]
  IC80 neutralization: 36.1 µg/mL
[24]
  IC80 (µg/ml), TZM-bl pseudovirus neutralization: 0.363 µg/mL
[25]
  IC80 (µg/ml), TZM-bl pseudovirus neutralization: 3.73 µg/mL
[26]
  neutralization IC50: 2.14 µg/mL
[27]
  neutralization IC50: 1.15 µg/mL
[28]
  neutralization IC50: 1.97 µg/mL
[29]
  neutralization IC50: 0.769 µg/mL
[30]
  neutralization IC50: 9.78 µg/mL
[31]
  neutralization IC50: 0.102 µg/mL
[32]
  neutralization IC50: 0.703 µg/mL
[33]
  neutralization IC50: 1.74 µg/mL
[34]
  neutralization IC50: 0.954 µg/mL
[35]
  neutralization IC50: 0.563 µg/mL
[36]
  neutralization IC50: 0.963 µg/mL
[37]
  neutralization IC50: 0.227 µg/mL
[38]
  neutralization IC50: 0.011 µg/mL
[39]
  neutralization IC50: 0.663 µg/mL
[40]
  neutralization IC50: 0.383 µg/mL
[41]
  neutralization IC50: 0.491 µg/mL
[42]
  neutralization IC50: 0.389 µg/mL
[43]
  neutralization IC50: 20.3 µg/mL
[44]
  neutralization IC50: 0.248 µg/mL
[45]
  neutralization IC50: 0.206 µg/mL
[46]
  neutralization IC50: 1.48 µg/mL

## PGZL1 (antibody)
[1]
  IC80 neutralization: 2.2 µg/mL
[2]
  IC80 neutralization: > 50 µg/mL
[3]
  IC80 neutralization: 0.564 µg/mL
[4]
  IC80 neutralization: > 50 µg/mL
[5]
  IC80 neutralization: > 50 µg/mL
[6]
  IC80 neutralization: 18.8 µg/mL
[7]
  IC80 neutralization: 20.2 µg/mL
[8]
  IC80 neutralization: 5.19 µg/mL
[9]
  IC80 neutralization: 1.6 µg/mL
[10]
  IC80 neutralization: > 50 µg/mL
[11]
  IC80 neutralization: > 50 µg/mL
[12]
  IC80 neutralization: 42.6 µg/mL
[13]
  IC80 neutralization: > 50 µg/mL
[14]
  IC80 neutralization: > 50 µg/mL
[15]
  IC80 neutralization: > 50 µg/mL
[16]
  IC80 neutralization: 17.8 µg/mL
[17]
  IC80 neutralization: 45.6 µg/mL
[18]
  IC80 neutralization: 10.5 µg/mL
[19]
  IC80 neutralization: 6.6 µg/mL
[20]
  IC80 neutralization: > 50 µg/mL
[21]
  IC80 neutralization: 4.7 µg/mL
[22]
  IC80 neutralization: > 50 µg/mL
[23]
  IC80 neutralization: > 50 µg/mL
[24]
  IC80 (µg/ml), TZM-bl pseudovirus neutralization: 32.3 µg/mL
[25]
  IC80 (µg/ml), TZM-bl pseudovirus neutralization: 10.6 µg/mL
[26]
  neutralization IC50: 20.8 µg/mL
[27]
  neutralization IC50: 16.7 µg/mL
[28]
  neutralization IC50: 12.8 µg/mL
[29]
  neutralization IC50: 2.88 µg/mL
[30]
  neutralization IC50: 35.8 µg/mL
[31]
  neutralization IC50: 0.424 µg/mL
[32]
  neutralization IC50: 7.36 µg/mL
[33]
  neutralization IC50: 31.7 µg/mL
[34]
  neutralization IC50: 24.3 µg/mL
[35]
  neutralization IC50: 3.55 µg/mL
[36]
  neutralization IC50: 22.1 µg/mL
[37]
  neutralization IC50: > 50 µg/mL
[38]
  neutralization IC50: 1.89 µg/mL
[39]
  neutralization IC50: 12.6 µg/mL
[40]
  neutralization IC50: 4.87 µg/mL
[41]
  neutralization IC50: 28 µg/mL
[42]
  neutralization IC50: 3.97 µg/mL
[43]
  neutralization IC50: > 50 µg/mL
[44]
  neutralization IC50: 1.54 µg/mL
[45]
  neutralization IC50: 2.02 µg/mL
[46]
  neutralization IC50: 23.5 µg/mL

## VRC01 (antibody)
[1]
  IC80 neutralization: 0.28 µg/mL
[2]
  IC80 neutralization: 0.535 µg/mL
[3]
  IC80 neutralization: 0.196 µg/mL
[4]
  IC80 neutralization: 0.137 µg/mL
[5]
  IC80 neutralization: 0.69 µg/mL
[6]
  IC80 neutralization: 3.52 µg/mL
[7]
  IC80 neutralization: 3.62 µg/mL
[8]
  IC80 neutralization: 0.193 µg/mL
[9]
  IC80 neutralization: > 50 µg/mL
[10]
  IC80 neutralization: 2.42 µg/mL
[11]
  IC80 neutralization: 10.1 µg/mL
[12]
  IC80 neutralization: 0.206 µg/mL
[13]
  IC80 neutralization: 0.625 µg/mL
[14]
  IC80 neutralization: 0.595 µg/mL
[15]
  IC80 neutralization: 43.7 µg/mL
[16]
  IC80 neutralization: 0.848 µg/mL
[17]
  IC80 neutralization: 0.252 µg/mL
[18]
  IC80 neutralization: 0.242 µg/mL
[19]
  IC80 neutralization: 7.79 µg/mL
[20]
  IC80 neutralization: > 50 µg/mL
[21]
  IC80 neutralization: 0.097 µg/mL
[22]
  IC80 neutralization: 0.558 µg/mL
[23]
  IC80 neutralization: > 50 µg/mL
[24]
  IC80 (µg/ml), TZM-bl pseudovirus neutralization: 0.164 µg/mL
[25]
  IC80 (µg/ml), TZM-bl pseudovirus neutralization: 0.223 µg/mL
[26]
  neutralization IC50: 0.206 µg/mL
[27]
  neutralization IC50: 0.056 µg/mL
[28]
  neutralization IC50: 0.262 µg/mL
[29]
  neutralization IC50: 0.231 µg/mL
[30]
  neutralization IC50: 0.604 µg/mL
[31]
  neutralization IC50: > 50 µg/mL
[32]
  neutralization IC50: 0.074 µg/mL
[33]
  neutralization IC50: 1.25 µg/mL
[34]
  neutralization IC50: 0.142 µg/mL
[35]
  neutralization IC50: 0.083 µg/mL
[36]
  neutralization IC50: 0.033 µg/mL
[37]
  neutralization IC50: 0.124 µg/mL
[38]
  neutralization IC50: 0.091 µg/mL
[39]
  neutralization IC50: > 50 µg/mL
[40]
  neutralization IC50: 0.488 µg/mL
[41]
  neutralization IC50: 0.126 µg/mL
[42]
  neutralization IC50: 0.565 µg/mL
[43]
  neutralization IC50: 0.112 µg/mL
[44]
  neutralization IC50: 0.021 µg/mL
[45]
  neutralization IC50: 0.124 µg/mL
[46]
  neutralization IC50: > 50 µg/mL

Source: patent publication US20240124560A1
